# Source: patent publication US20230293738A1 (Y MABS THERAPEUTICS, published 2023)
# Like-named read-outs stand apart in the source and are kept apart here.
# T1: human 4Ig-B7H3 (B7H3-4Ig-His) (human, UniProt Q5ZPR3 29-466)
# T1 construct: Recombinant His-tagged protein immobilised on a CM5 chip; also called 41g-B7H3; human 4Ig-B7-H3 (dominant isoform); not shown: His tag
# T1 sequence: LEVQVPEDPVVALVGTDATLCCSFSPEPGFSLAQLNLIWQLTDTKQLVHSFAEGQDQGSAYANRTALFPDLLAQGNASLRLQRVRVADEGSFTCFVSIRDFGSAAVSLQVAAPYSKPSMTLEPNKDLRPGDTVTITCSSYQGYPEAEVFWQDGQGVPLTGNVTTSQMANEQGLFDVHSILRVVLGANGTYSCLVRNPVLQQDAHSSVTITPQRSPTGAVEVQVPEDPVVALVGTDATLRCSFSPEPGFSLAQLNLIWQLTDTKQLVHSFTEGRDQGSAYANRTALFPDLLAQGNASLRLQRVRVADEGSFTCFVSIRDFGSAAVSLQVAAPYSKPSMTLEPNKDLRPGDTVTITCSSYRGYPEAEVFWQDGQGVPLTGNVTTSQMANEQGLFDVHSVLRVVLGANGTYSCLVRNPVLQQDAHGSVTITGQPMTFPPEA
# T2: human 2Ig-B7H3 (B7H3-2Ig-His) (human, UniProt Q5ZPR3 29-466)
# T2 construct: Recombinant His-tagged protein immobilised on a CM5 chip; also called 21g-B7H3; B7H3-21g-His; not shown: His tag
# T2 sequence: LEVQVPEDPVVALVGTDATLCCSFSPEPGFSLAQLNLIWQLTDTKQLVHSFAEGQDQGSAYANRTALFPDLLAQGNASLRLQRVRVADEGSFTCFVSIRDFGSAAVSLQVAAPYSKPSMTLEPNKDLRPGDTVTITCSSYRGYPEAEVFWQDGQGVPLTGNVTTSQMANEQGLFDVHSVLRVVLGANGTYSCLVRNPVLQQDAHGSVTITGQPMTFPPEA
# What was measured:
# [1] = biological target: T1, human 4Ig-B7H3 (B7H3-4Ig-His); assay: SPR, Biacore T200, 4Ig-B7H3-His on CM5 chip, 1:1 fit
# [2] = biological target: T2, human 2Ig-B7H3 (B7H3-2Ig-His); assay: SPR, Biacore T200, 2Ig-B7H3-His on CM5 chip, 1:1 fit
# [3] = biological target: T2, human 2Ig-B7H3 (B7H3-2Ig-His); assay: SPR, Biacore T200, 2Ig-B7H3-His on CM5 chip, 1:1 fit; * beyond fitting limits
# [4] = biological target: T2, human 2Ig-B7H3 (B7H3-2Ig-His); assay: SPR, Biacore T200, 2Ig-B7H3-His on CM5 chip, 1:1 fit; remark: listed apart in the source
# Description: (§1) Both human B7H3 41g and 21g proteins were dissolved in PBS (Phosphate-Buffered Saline) to make 0.1 mg/ml stock solution and stored in −80° C. B7-H3 proteins were immobilized onto the CM5 sensor chip using Amine Coupling Kit. Both proteins were diluted to 10 ug/ml with 10 mM Sodium acetate, pH 5.0. […] A blank immobilized surface was used as a control
# (§2) Binding Assays: [0143] 1. Antibodies were diluted in HBS-EP buffer (10 mM HEPES, 150 mM NaCl, 3 mM EDTA, 0.05% Surfactant P20, pH 7.4) at varying concentrations (25-50-100-200-400 nM) prior to analysis. […] 2. Samples (60 ul) were injected over the sensor surface at a flow rate of 30 ul/min over 2 min. [0145] 3. Following completion of the association phase, dissociation was monitored in HBS-EP buffer for 10 min at the same flow rate. […] 4. At the end of each cycle, the surface was regenerated using 10 mM NaOH at a flow rate of 50 ul/min over 2×15 sec.
# (§3) The data were analyzed by the 1:1 fitting model and default parameter setting for the rate constants using the Biacore T200 Evaluation Software, and the apparent association on rate constant (kon, ka), dissociation off rate constant (koff, kd) and equilibrium dissociation constant (KD=kd/ka) were calculated.
# [5] = biological target: T1, human 4Ig-B7H3 (B7H3-4Ig-His); assay: SPR, Biacore T200, 4Ig-B7H3-His on CM5 chip, 1:1 fit; remark: listed apart in the source
# Description: as §1, §2
# [6] = biological target: T1, human 4Ig-B7H3 (B7H3-4Ig-His); assay: SPR
# Description: as §1, §2
# [7] = biological target: T2, human 2Ig-B7H3 (B7H3-2Ig-His); assay: SPR
# Description: as §1, §2
# [8] = biological target: T2, human 2Ig-B7H3 (B7H3-2Ig-His); assay: SPR; CHX-A''-DTPA conjugate, CAR 1.4, unlabeled
# [9] = biological target: T1, human 4Ig-B7H3 (B7H3-4Ig-His); assay: SPR, Biacore T200, 4Ig-B7H3-His on CM5 chip, 1:1 fit; remark: listed apart in the source
# Description: as §1, §3
# [10] = biological target: T2, human 2Ig-B7H3 (B7H3-2Ig-His); assay: SPR, Biacore T200, 2Ig-B7H3-His on CM5 chip, 1:1 fit; remark: listed apart in the source
# Description: as §1, §3
# [11] = biological target: T2, human 2Ig-B7H3 (B7H3-2Ig-His); assay: SPR, Biacore T200, 2Ig-B7H3-His on CM5 chip, 1:1 fit; DOTA conjugate, CAR 6.3, labeled with cold 175Lu
# Description: as §1, §2
# [12] = biological target: T2, human 2Ig-B7H3 (B7H3-2Ig-His); assay: SPR, Biacore T200, 2Ig-B7H3-His on CM5 chip, 1:1 fit; CHX-A''-DTPA conjugate, CAR 6.1, labeled with cold 175Lu
# Description: as §1, §2
# [13] = biological target: T1, human 4Ig-B7H3 (B7H3-4Ig-His); assay: SPR; remark: listed apart in the source
# Description: as §1, §3
# [14] = biological target: T2, human 2Ig-B7H3 (B7H3-2Ig-His); assay: SPR; remark: listed apart in the source
# Description: as §1, §3
# [15] = biological target: T2, human 2Ig-B7H3 (B7H3-2Ig-His); assay: SPR; CHX-A''-DTPA conjugate, CAR 0.6, unlabeled
Kd [4] [nM],T ½ [4] [h],Kd [5] [nM],t ½ [5] [h],Kd [9] [nM],t ½ [9] [h],t ½ [10] [h],Molecule,other results
1.93,3.94,10,1.09,,,,"8H9 antibody conjugated with p-SCN-Bn-CHX-A″-DTPA, CAR 1.4 (antibody, mouse IgG1, kappa, V domains shown, p-SCN-Bn-CHX-A″-DTPA conjugated, CAR 1.4 per antibody; sites not stated, Chelator conjugate, not metal-labelled) VH: QVQLQQSGAELVKPGASVKLSCKASGYTFTNYDINWVRQRPEQGLEWIGWIFPGDGSTQYNEKFKGKATLTTDTSSSTAYMQLSRLTSEDSAVYFCARQTTATWFAYWGQGTLVTVSA VL: DIVMTQSPATLSVTPGDRVSLSCRASQSISDYLHWYQQKSHESPRLLIKYASQSISGIPSRFSGSGSGSDFTLSINSVEPEDVGVYYCQNGHSFPLTFGAGTKLELKR",Kd [6]: 10 nM; t ½ [6]: 1.09 h; t ½ [7]: 3.94 h; Kd [8]: 1.93 nM
,,,,19.5,0.742,5.39,"175Lu-DOTA-8H9-antibody (CAR6.3) (antibody, mouse IgG1, kappa, V domains shown, p-SCN-Bn-DOTA conjugated (CAR 6.3 per antibody), labelled with cold lutetium-175; sites not stated) VH: QVQLQQSGAELVKPGASVKLSCKASGYTFTNYDINWVRQRPEQGLEWIGWIFPGDGSTQYNEKFKGKATLTTDTSSSTAYMQLSRLTSEDSAVYFCARQTTATWFAYWGQGTLVTVSA VL: DIVMTQSPATLSVTPGDRVSLSCRASQSISDYLHWYQQKSHESPRLLIKYASQSISGIPSRFSGSGSGSDFTLSINSVEPEDVGVYYCQNGHSFPLTFGAGTKLELKR",Kd [11]: 2.34 nM
,,,,34,0.4,1.82,"175Lu-DTPA-8H9-antibody (CAR6.1) (antibody, mouse IgG1, kappa, V domains shown, p-SCN-Bn-CHX-A″-DTPA conjugated (CAR 6.1 per antibody), labelled with cold lutetium-175; sites not stated) VH: QVQLQQSGAELVKPGASVKLSCKASGYTFTNYDINWVRQRPEQGLEWIGWIFPGDGSTQYNEKFKGKATLTTDTSSSTAYMQLSRLTSEDSAVYFCARQTTATWFAYWGQGTLVTVSA VL: DIVMTQSPATLSVTPGDRVSLSCRASQSISDYLHWYQQKSHESPRLLIKYASQSISGIPSRFSGSGSGSDFTLSINSVEPEDVGVYYCQNGHSFPLTFGAGTKLELKR",Kd [12]: 7.21 nM; Kd [13]: 34 nM; t ½ [13]: 0.4 h; t ½ [14]: 1.82 h
1.22,5.72,10.1,0.883,,,,"8H9 antibody conjugated with p-SCN-Bn-CHX-A″-DTPA, CAR 0.6 (antibody, mouse IgG1, kappa, V domains shown, p-SCN-Bn-CHX-A″-DTPA conjugated, CAR 0.6 per antibody; sites not stated, Chelator conjugate, not metal-labelled; also called conj-CHX-A″-DTPA (CAR0.6)) VH: QVQLQQSGAELVKPGASVKLSCKASGYTFTNYDINWVRQRPEQGLEWIGWIFPGDGSTQYNEKFKGKATLTTDTSSSTAYMQLSRLTSEDSAVYFCARQTTATWFAYWGQGTLVTVSA VL: DIVMTQSPATLSVTPGDRVSLSCRASQSISDYLHWYQQKSHESPRLLIKYASQSISGIPSRFSGSGSGSDFTLSINSVEPEDVGVYYCQNGHSFPLTFGAGTKLELKR",Kd [6]: 10.1 nM; t ½ [6]: 0.883 h; t ½ [7]: 5.72 h; Kd [15]: 1.22 nM
1.71,6.58,14.6,1.03,,,,"8H9 antibody conjugated with p-SCN-Bn-DOTA, CAR 7.5 (antibody, mouse IgG1, kappa, V domains shown, p-SCN-Bn-DOTA conjugated, CAR 7.5 per antibody; sites not stated, Chelator conjugate, not metal-labelled) VH: QVQLQQSGAELVKPGASVKLSCKASGYTFTNYDINWVRQRPEQGLEWIGWIFPGDGSTQYNEKFKGKATLTTDTSSSTAYMQLSRLTSEDSAVYFCARQTTATWFAYWGQGTLVTVSA VL: DIVMTQSPATLSVTPGDRVSLSCRASQSISDYLHWYQQKSHESPRLLIKYASQSISGIPSRFSGSGSGSDFTLSINSVEPEDVGVYYCQNGHSFPLTFGAGTKLELKR",
0.58,14,7.57,1.42,,,,"8H9 antibody conjugated with p-SCN-Bn-DOTA, CAR 2.6 (antibody, mouse IgG1, kappa, V domains shown, p-SCN-Bn-DOTA conjugated, CAR 2.6 per antibody; sites not stated, Chelator conjugate, not metal-labelled) VH: QVQLQQSGAELVKPGASVKLSCKASGYTFTNYDINWVRQRPEQGLEWIGWIFPGDGSTQYNEKFKGKATLTTDTSSSTAYMQLSRLTSEDSAVYFCARQTTATWFAYWGQGTLVTVSA VL: DIVMTQSPATLSVTPGDRVSLSCRASQSISDYLHWYQQKSHESPRLLIKYASQSISGIPSRFSGSGSGSDFTLSINSVEPEDVGVYYCQNGHSFPLTFGAGTKLELKR",

# More lines, now with the values behind:
Molecule,Kd [4] [nM],T ½ [4] [h],Kd [5] [nM],t ½ [5] [h],Kd [9] [nM],t ½ [9] [h],t ½ [10] [h],other results
127I-Humanized-8H9-antibody,,,,,,,,Kd [1]: 0.24 nM; koff [1]: 2.68e-05 s⁻¹; kon [1]: 112000 M⁻¹ s⁻¹; t ½ [1]: 7.17 h; Kd [2]: 0.00212 nM; kon [2]: 361000 M⁻¹ s⁻¹; t ½ [2]: 251 h; koff [3]: 7.66e-07 s⁻¹
"8H9 antibody conjugated with p-SCN-Bn-DOTA, CAR 0.8 (antibody, mouse IgG1, kappa, V domains shown, p-SCN-Bn-DOTA conjugated, CAR 0.8 per antibody; sites not stated, Chelator conjugate, not metal-labelled) VH: QVQLQQSGAELVKPGASVKLSCKASGYTFTNYDINWVRQRPEQGLEWIGWIFPGDGSTQYNEKFKGKATLTTDTSSSTAYMQLSRLTSEDSAVYFCARQTTATWFAYWGQGTLVTVSA VL: DIVMTQSPATLSVTPGDRVSLSCRASQSISDYLHWYQQKSHESPRLLIKYASQSISGIPSRFSGSGSGSDFTLSINSVEPEDVGVYYCQNGHSFPLTFGAGTKLELKR",0.166,39.2,5.76,1.67,,,,
"hu8H9-3.1 (antibody, V domains shown) VH: QVQLVQSGAEVVKPGASVKLSCKTSGYTFTNYDINWVRQRPGQGLEWIGWIFPGDDSTQYNEKFKGKATLTTDTSTSTAYMELSSLRSEDTAVYFCARQTTGTWFAYWGQGTLVTVSS VL: EIVMTQSPATLSVSPGERVTLSCRASQSISDYLYWYQQKSHESPRLLIKYASQSISGIPARFSGSGSGSEFTLTINSVEPEDVGVYYCQNGHSFPLTFGQGTKLELKR",,,,,8.87,0.769,1.89,koff [9]: 0.000251 s⁻¹; kon [9]: 28300 M⁻¹ s⁻¹; Kd [10]: 2.22 nM; koff [10]: 0.000102 s⁻¹; kon [10]: 45900 M⁻¹ s⁻¹
"175Lu-DOTA-8H9-antibody (CAR2.6) (antibody, mouse IgG1, kappa, V domains shown, p-SCN-Bn-DOTA conjugated (CAR 2.6 per antibody), labelled with cold lutetium-175; sites not stated) VH: QVQLQQSGAELVKPGASVKLSCKASGYTFTNYDINWVRQRPEQGLEWIGWIFPGDGSTQYNEKFKGKATLTTDTSSSTAYMQLSRLTSEDSAVYFCARQTTATWFAYWGQGTLVTVSA VL: DIVMTQSPATLSVTPGDRVSLSCRASQSISDYLHWYQQKSHESPRLLIKYASQSISGIPSRFSGSGSGSDFTLSINSVEPEDVGVYYCQNGHSFPLTFGAGTKLELKR",,,,,15.7,0.822,6.11,Kd [10]: 1.74 nM
"8H9 antibody conjugated with p-SCN-Bn-DOTA, CAR 2.4 (antibody, mouse IgG1, kappa, V domains shown, p-SCN-Bn-DOTA conjugated, CAR 2.4 per antibody; sites not stated, Chelator conjugate, not metal-labelled) VH: QVQLQQSGAELVKPGASVKLSCKASGYTFTNYDINWVRQRPEQGLEWIGWIFPGDGSTQYNEKFKGKATLTTDTSSSTAYMQLSRLTSEDSAVYFCARQTTATWFAYWGQGTLVTVSA VL: DIVMTQSPATLSVTPGDRVSLSCRASQSISDYLHWYQQKSHESPRLLIKYASQSISGIPSRFSGSGSGSDFTLSINSVEPEDVGVYYCQNGHSFPLTFGAGTKLELKR",0.222,41.1,8.61,1.4,,,,
